From patent publication US20140274782A1 (Stanford University, published 2014)

Key:
Test in all cases: ProtoArray, GST-treated control array;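 note: human protein microarray (about 9500 recombinant proteins) incubated overnight with GST alone plus SAM cofactor as the negative control for G9a SET domain methylation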
[1] = biological target: T1, PPIL5-Peptidylprolyl isomerase-like 5 (human, UniProt Q96L50 1-414, limits assumed)
T1 sequence (looked up): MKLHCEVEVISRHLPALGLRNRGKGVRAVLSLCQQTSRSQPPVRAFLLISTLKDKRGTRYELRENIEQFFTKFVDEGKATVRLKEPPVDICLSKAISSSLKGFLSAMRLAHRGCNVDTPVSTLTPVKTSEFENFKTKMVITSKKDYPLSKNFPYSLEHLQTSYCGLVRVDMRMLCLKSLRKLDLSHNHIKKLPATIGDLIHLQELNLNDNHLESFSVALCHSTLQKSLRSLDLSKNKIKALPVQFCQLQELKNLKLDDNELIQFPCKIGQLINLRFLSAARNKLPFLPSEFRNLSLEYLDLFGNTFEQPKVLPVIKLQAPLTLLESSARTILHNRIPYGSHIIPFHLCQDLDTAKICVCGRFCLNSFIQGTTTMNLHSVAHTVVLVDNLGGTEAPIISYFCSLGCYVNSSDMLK

[2] = biological target: T2, HIC2-Hypermethylated in cancer 2 protein (human, UniProt Q96JB3 1-615, limits assumed)
T2 sequence (looked up): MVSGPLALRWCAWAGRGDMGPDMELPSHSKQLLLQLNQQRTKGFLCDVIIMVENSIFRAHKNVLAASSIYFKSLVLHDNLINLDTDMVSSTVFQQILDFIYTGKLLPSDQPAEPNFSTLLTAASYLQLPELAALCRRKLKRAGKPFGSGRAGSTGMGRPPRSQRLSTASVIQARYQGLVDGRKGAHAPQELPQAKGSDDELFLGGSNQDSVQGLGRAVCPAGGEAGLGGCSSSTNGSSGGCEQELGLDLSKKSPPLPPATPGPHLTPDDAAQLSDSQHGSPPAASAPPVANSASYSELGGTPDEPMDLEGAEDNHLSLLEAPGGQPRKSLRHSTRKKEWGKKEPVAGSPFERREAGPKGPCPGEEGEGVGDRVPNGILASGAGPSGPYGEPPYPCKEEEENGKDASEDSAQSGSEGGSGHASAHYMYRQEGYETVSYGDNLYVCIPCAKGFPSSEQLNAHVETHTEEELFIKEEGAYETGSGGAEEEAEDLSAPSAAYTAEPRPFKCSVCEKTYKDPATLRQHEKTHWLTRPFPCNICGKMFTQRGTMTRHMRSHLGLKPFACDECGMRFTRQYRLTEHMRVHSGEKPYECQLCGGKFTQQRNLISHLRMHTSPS

[3] = biological target: T3, SMYD3-SET and MYND domain containing 3 (SMYD3) (human, UniProt Q9H7B4 1-428, limits assumed)
T3 sequence (looked up): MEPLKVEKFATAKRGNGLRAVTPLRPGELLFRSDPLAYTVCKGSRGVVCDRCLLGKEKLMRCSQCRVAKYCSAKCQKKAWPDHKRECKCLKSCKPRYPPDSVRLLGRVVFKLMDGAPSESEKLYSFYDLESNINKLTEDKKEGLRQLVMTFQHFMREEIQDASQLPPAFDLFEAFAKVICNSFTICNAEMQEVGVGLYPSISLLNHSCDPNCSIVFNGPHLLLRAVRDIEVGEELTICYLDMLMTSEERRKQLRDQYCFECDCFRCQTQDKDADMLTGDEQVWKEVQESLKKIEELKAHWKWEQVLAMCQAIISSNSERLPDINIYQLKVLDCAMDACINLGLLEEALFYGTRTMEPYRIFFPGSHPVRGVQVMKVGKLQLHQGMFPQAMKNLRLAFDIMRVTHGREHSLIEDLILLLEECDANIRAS

[4] = biological target: T4, MOBKL3-Mps one binder kinase activator-like 3 (human, UniProt Q9Y3A3 1-225, limits assumed)
T4 sequence (looked up): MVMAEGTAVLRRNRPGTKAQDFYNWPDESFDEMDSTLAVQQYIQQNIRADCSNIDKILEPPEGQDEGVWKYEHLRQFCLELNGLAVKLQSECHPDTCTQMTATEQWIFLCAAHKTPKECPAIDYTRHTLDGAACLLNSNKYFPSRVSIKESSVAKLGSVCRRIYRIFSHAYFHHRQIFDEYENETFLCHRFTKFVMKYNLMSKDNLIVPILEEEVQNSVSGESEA

[5] = biological target: T5, FKBP14-FK506 binding protein 14, 22 kDa (FKBP14) (human, UniProt Q9NWM8 20-211)
T5 sequence (looked up): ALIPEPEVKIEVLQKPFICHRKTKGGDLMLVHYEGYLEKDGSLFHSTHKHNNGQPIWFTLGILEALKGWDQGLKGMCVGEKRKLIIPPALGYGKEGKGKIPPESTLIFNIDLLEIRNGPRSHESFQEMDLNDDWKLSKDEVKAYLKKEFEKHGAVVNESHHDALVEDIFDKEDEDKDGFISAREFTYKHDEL

[6] = biological target: ARL6IP1-ADP-ribosylation factor-like 6 interacting protein 1 (ARL6IP1) (human, UniProt Q15041 1-203, limits assumed)
ARL6IP1-ADP-ribosylation factor-like 6 interacting protein 1 (ARL6IP1), sequence (Q15041 whole entry): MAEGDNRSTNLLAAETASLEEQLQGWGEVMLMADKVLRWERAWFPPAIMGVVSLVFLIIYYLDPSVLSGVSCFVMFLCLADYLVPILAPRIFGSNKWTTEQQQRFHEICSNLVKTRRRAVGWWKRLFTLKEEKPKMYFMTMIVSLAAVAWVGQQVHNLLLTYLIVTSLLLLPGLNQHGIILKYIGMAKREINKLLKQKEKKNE

- GST Average SNR [1]: -0.512
- GST Average SNR [2]: 0.588
- GST Average SNR [3]: 1.3
- GST Average SNR [4]: -0.451
- GST Average SNR [5]: 1.24
- GST Average SNR [6]: 1.05
B1: 3× Flag-3×MBT (designed binder)
chain: EEWSSSQPATGEKKECWSWESYLEEQKAITAPVSLFQDSQAVTHNKNGFKLGMKLEGIDPQHPSMYFILTVAEVCGYRLRLHFDGYSECHDFWVNANSPDIHPAGWFEKTGHKLQPPKGYKEEEFSWSQYLRSTRAQAAPKHLFVSQSHSPPPLGFQVGMKLEAVDRMNPSLVCVASVTDVVDSRFLVHFDNWDDTYDYWCDPSSPYIHPVGWCQKQGKPLTPPQDYPDPDNFCWEKYLEETGASAVPTWAFKVRPPHSFLVNMKLEAVDRRNPALIRVASVEDVEDHRIKIHFDGWSHGYDFWIDADHPDIHPAGWCSKTGHPLQPPLGPREPSSASPGG
notes: also called Flag-tagged 3×MBT; 3xFlag-3xMBT; not shown: made by PreScission cleavage of GST-3× Flag-3×MBT
